System: Escherichia coli TOP10
Assay: shrunken log2 fold change of peptide-encoding DNA abundance (4.5 h post-induction vs induction); higher = less antimicrobial activity (less host growth inhibition)
Settings: time post-induction: 4.5 h; library: site-saturation at positions 5, 18, 19, 20
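Also: peptides expressed intracellularly from a pBAD plasmid library in pooled LB shake-flask culture, induced with 0.3% L-arabinose, DNA abundance read by NGS, three biological replicates, DESeq2 with apeglm shrinkage.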

Row | Sequence | shrunken log2 fold change
1 | RRIRWRPPRLPRPRPRPRILPRP | 0.188
2 | RRIRKRPPRLPRPRPRPQAAPRP | 0.451
3 | RRIRARPPRLPRPRPRPQVLPRP | -0.0334
4 | RRIRFRPPRLPRPRPRPIYLPRP | -0.626
5 | RRIRKRPPRLPRPRPRPPIVPRP | -0.121
6 | RRIRSRPPRLPRPRPRPKDTPRP | -0.145
7 | RRIRNRPPRLPRPRPRPTTTPRP | 0.082
8 | RRIRERPPRLPRPRPRPHYAPRP | -0.383
9 | RRIRFRPPRLPRPRPRPAHCPRP | 0.0781
10 | RRIRSRPPRLPRPRPRPDNSPRP | -0.13
11 | RRIRFRPPRLPRPRPRPMEPPRP | 0.039
12 | RRIRKRPPRLPRPRPRPPLKPRP | 0.419
13 | RRIRTRPPRLPRPRPRPGMPPRP | -0.0497
14 | RRIRERPPRLPRPRPRPNLRPRP | 0.0952
15 | RRIRMRPPRLPRPRPRPHVKPRP | -0.282
16 | RRIRLRPPRLPRPRPRPNSWPRP | -0.0901
17 | RRIRVRPPRLPRPRPRPRPWPRP | 0.178
18 | RRIRFRPPRLPRPRPRPIDMPRP | -0.727
19 | RRIRTRPPRLPRPRPRPYKNPRP | -0.937
20 | RRIRNRPPRLPRPRPRPWTQPRP | -0.0178
21 | RRIRCRPPRLPRPRPRPVCTPRP | 0.0452
22 | RRIRTRPPRLPRPRPRPMQVPRP | -0.21
23 | RRIRVRPPRLPRPRPRPGNIPRP | -0.116
24 | RRIRMRPPRLPRPRPRPWQPPRP | -0.0454
25 | RRIRRRPPRLPRPRPRPIEHPRP | -0.00775

Row | Sequence | shrunken log2 fold change
26 | RRIRARPPRLPRPRPRPMMKPRP | -0.146
27 | RRIRNRPPRLPRPRPRPYWFPRP | -0.124
28 | RRIRTRPPRLPRPRPRPGHKPRP | -0.106
29 | RRIRPRPPRLPRPRPRPGGCPRP | 0.295
30 | RRIRERPPRLPRPRPRPCTAPRP | -0.337
31 | RRIRMRPPRLPRPRPRPLNHPRP | -0.0957
32 | RRIRKRPPRLPRPRPRPSQWPRP | 0.144
33 | RRIRKRPPRLPRPRPRPHKKPRP | -0.127
34 | RRIRRRPPRLPRPRPRPRGNPRP | 0.524
35 | RRIRERPPRLPRPRPRPEEKPRP | -0.0137
36 | RRIRHRPPRLPRPRPRPQGMPRP | -0.201
37 | RRIRLRPPRLPRPRPRPYICPRP | -0.0262
38 | RRIRKRPPRLPRPRPRPAKTPRP | 0.0104
39 | RRIRWRPPRLPRPRPRPLDCPRP | -0.117
40 | RRIRCRPPRLPRPRPRPVCVPRP | -0.0801
41 | RRIRIRPPRLPRPRPRPEDRPRP | -0.0106
42 | RRIRMRPPRLPRPRPRPREGPRP | 0.79
43 | RRIRCRPPRLPRPRPRPNWFPRP | -0.201
44 | RRIRVRPPRLPRPRPRPPYTPRP | -0.268
45 | RRIRNRPPRLPRPRPRPNHWPRP | -0.125
46 | RRIRHRPPRLPRPRPRPNSPPRP | -0.337
47 | RRIRARPPRLPRPRPRPYIMPRP | -0.675
48 | RRIRIRPPRLPRPRPRPLAIPRP | -1.11
49 | RRIRCRPPRLPRPRPRPMFQPRP | -0.151
50 | RRIRTRPPRLPRPRPRPQRSPRP | 0.309

Row | Sequence | shrunken log2 fold change
51 | RRIRNRPPRLPRPRPRPCHKPRP | -0.00663
52 | RRIRCRPPRLPRPRPRPHDRPRP | -0.0905
53 | RRIRLRPPRLPRPRPRPAWLPRP | 0.229
54 | RRIRKRPPRLPRPRPRPRYSPRP | -0.705
55 | RRIRARPPRLPRPRPRPHVDPRP | 0.142
56 | RRIRFRPPRLPRPRPRPGEEPRP | 0.0793
57 | RRIRYRPPRLPRPRPRPWAGPRP | -0.53
58 | RRIRYRPPRLPRPRPRPCPNPRP | 0.626
59 | RRIRDRPPRLPRPRPRPRPNPRP | 0.323
60 | RRIRQRPPRLPRPRPRPKVMPRP | -0.0261
61 | RRIRARPPRLPRPRPRPGPPPRP | 0.736
62 | RRIRMRPPRLPRPRPRPYSMPRP | -0.245
63 | RRIRQRPPRLPRPRPRPAEVPRP | 0.142
64 | RRIRIRPPRLPRPRPRPSCAPRP | -0.249
65 | RRIRWRPPRLPRPRPRPWGAPRP | 0.297
66 | RRIRERPPRLPRPRPRPPDRPRP | -0.00621
67 | RRIRCRPPRLPRPRPRPLFLPRP | -0.601
68 | RRIRYRPPRLPRPRPRPVYQPRP | -0.341
69 | RRIRPRPPRLPRPRPRPMITPRP | -0.407
70 | RRIRKRPPRLPRPRPRPHNQPRP | 0.0277
71 | RRIRGRPPRLPRPRPRPVCEPRP | 1.06
72 | RRIRRRPPRLPRPRPRPGQLPRP | 0.0163
73 | RRIRWRPPRLPRPRPRPHWIPRP | -0.434
74 | RRIRSRPPRLPRPRPRPVGWPRP | 0.839
75 | RRIRQRPPRLPRPRPRPRPNPRP | 0.183

Row | Sequence | shrunken log2 fold change
76 | RRIRDRPPRLPRPRPRPSLWPRP | 1.09
77 | RRIRWRPPRLPRPRPRPVKLPRP | -0.0719
78 | RRIRKRPPRLPRPRPRPDRDPRP | 0.00592
79 | RRIRQRPPRLPRPRPRPRMVPRP | 0.166
80 | RRIRNRPPRLPRPRPRPQEIPRP | -0.00783
81 | RRIRERPPRLPRPRPRPNAWPRP | 0.113
82 | RRIRRRPPRLPRPRPRPVMRPRP | 0.714
83 | RRIRWRPPRLPRPRPRPNWLPRP | 0.0255
84 | RRIRKRPPRLPRPRPRPDEWPRP | 0.268
85 | RRIRIRPPRLPRPRPRPLPPPRP | 0.127
86 | RRIRYRPPRLPRPRPRPVIPPRP | -0.0128
87 | RRIRFRPPRLPRPRPRPMAMPRP | 0.102
88 | RRIRERPPRLPRPRPRPGCNPRP | -0.0442
89 | RRIRVRPPRLPRPRPRPYCYPRP | -0.745
90 | RRIRMRPPRLPRPRPRPIRIPRP | -0.0023
91 | RRIRIRPPRLPRPRPRPPAVPRP | 0.279
92 | RRIRVRPPRLPRPRPRPLSNPRP | -0.413
93 | RRIRERPPRLPRPRPRPRWRPRP | 0.706
94 | RRIRKRPPRLPRPRPRPPWLPRP | 0.574
95 | RRIRHRPPRLPRPRPRPEFWPRP | 0.42
96 | RRIRTRPPRLPRPRPRPMFTPRP | -0.253
97 | RRIRERPPRLPRPRPRPYDGPRP | -0.0116
98 | RRIRGRPPRLPRPRPRPRNQPRP | 0.402
99 | RRIRKRPPRLPRPRPRPMMWPRP | 0.373
100 | RRIRYRPPRLPRPRPRPDCTPRP | -0.268

Row | Sequence | shrunken log2 fold change
101 | RRIRCRPPRLPRPRPRPGSLPRP | 0.0481
102 | RRIRMRPPRLPRPRPRPAYNPRP | -0.236
103 | RRIRQRPPRLPRPRPRPFQYPRP | -0.306
104 | RRIRQRPPRLPRPRPRPDIIPRP | -0.0199
105 | RRIRKRPPRLPRPRPRPHHKPRP | -0.176
106 | RRIRWRPPRLPRPRPRPTAYPRP | 0.0204
107 | RRIRNRPPRLPRPRPRPCMFPRP | -0.68
108 | RRIRWRPPRLPRPRPRPAGYPRP | 0.278
109 | RRIRSRPPRLPRPRPRPFADPRP | -0.0303
110 | RRIRRRPPRLPRPRPRPRQFPRP | 0.225
111 | RRIRVRPPRLPRPRPRPKYVPRP | -0.163
112 | RRIRTRPPRLPRPRPRPRVGPRP | 0.364
113 | RRIRFRPPRLPRPRPRPHRFPRP | -0.0456
114 | RRIRIRPPRLPRPRPRPKYFPRP | -0.288
115 | RRIRRRPPRLPRPRPRPWELPRP | 0.0522
116 | RRIRRRPPRLPRPRPRPIRAPRP | 0.266
117 | RRIRERPPRLPRPRPRPQFCPRP | -0.0627
118 | RRIRHRPPRLPRPRPRPCSDPRP | -0.101
119 | RRIRFRPPRLPRPRPRPRIGPRP | 0.543
120 | RRIRMRPPRLPRPRPRPSYMPRP | -0.276
121 | RRIRYRPPRLPRPRPRPWDEPRP | -0.999
122 | RRIRVRPPRLPRPRPRPNTSPRP | -0.391
123 | RRIRGRPPRLPRPRPRPHWGPRP | 0.247
124 | RRIRGRPPRLPRPRPRPWRSPRP | 0.172
125 | RRIRWRPPRLPRPRPRPCDNPRP | 0.0838

Row | Sequence | shrunken log2 fold change
126 | RRIRQRPPRLPRPRPRPIPMPRP | -0.639
127 | RRIRHRPPRLPRPRPRPENDPRP | 0.00527
128 | RRIRNRPPRLPRPRPRPFGCPRP | -0.128
129 | RRIRCRPPRLPRPRPRPQTFPRP | -0.139
130 | RRIRPRPPRLPRPRPRPINVPRP | -0.366
131 | RRIRRRPPRLPRPRPRPCIGPRP | -0.328
132 | RRIRCRPPRLPRPRPRPVQAPRP | 0.224
133 | RRIRCRPPRLPRPRPRPKAIPRP | -0.0563
134 | RRIRFRPPRLPRPRPRPHSGPRP | 0.0508
135 | RRIRQRPPRLPRPRPRPKDYPRP | -0.756
136 | RRIRFRPPRLPRPRPRPSSEPRP | -0.134
137 | RRIRYRPPRLPRPRPRPLQIPRP | -0.51
138 | RRIRHRPPRLPRPRPRPRFRPRP | -0.105
139 | RRIRRRPPRLPRPRPRPQRHPRP | -0.0855
140 | RRIRTRPPRLPRPRPRPSGAPRP | 0.251
141 | RRIRDRPPRLPRPRPRPNGKPRP | -0.181
142 | RRIRKRPPRLPRPRPRPAEMPRP | -0.00753
143 | RRIRERPPRLPRPRPRPSENPRP | -0.293
144 | RRIRGRPPRLPRPRPRPRALPRP | 0.852
145 | RRIRPRPPRLPRPRPRPCIIPRP | -0.438
146 | RRIRQRPPRLPRPRPRPLWSPRP | -0.147
147 | RRIRNRPPRLPRPRPRPMGYPRP | -0.00459
148 | RRIRMRPPRLPRPRPRPFCHPRP | -0.0129
149 | RRIRQRPPRLPRPRPRPIYMPRP | -0.113
150 | RRIRDRPPRLPRPRPRPPEAPRP | 0.479

Source: the supplement of paper PMC9112550, “Optimization of the antimicrobial peptide Bac7 by deep mutational scanning” (BMC Biology, 2022)
